The series can be described thus: label from the status in PepcDB records.

With “MKHCLKFALLAGFALLLTACGFHLRGLGGSLKPLPFSTMYLEATGKSIEADLRTVFARDPKLSVMSEPKGAQAVVSVVSENQSKDILTINTGGRINEYQLTYTVVVRTVIGGVPVDPDMVVTVRRSLNYSDNQVLGKQQEEDLLWADARRDAAEQIVRRLAYLKVPAAPLAGPVSVKPDAVPQPLEHHHHHH”, the protein production result was “not failed”.

As to “MKHIHSYYSPNNLYNKIIEGLNNLGKDLSSVTPDDLQPVDEFHIRGDIATKELIELGNFTPDMHILDVGCGVGGSTRRLSHETGCHVTGIDLSDEYIDAAERLTQLLNMQARVKFNVGSALELPYADNTFDGAWSIQMNMNVEDKLGWLKEMYRVLKPGARAVLYEVCGHEEKTIYFPVPWAQDSSMSFLIPKEAFRDLIASTGFKIEVWNDKSDLAQKAFARMREPTGESTLPELGLHMLIGNDIKTKAYNMRRNLDDERISLIEILAIKPS”, the protein production result is “failed”. “MKHLPTTLLLSTLAITLSAQAHNLVPAPKQTQSVLIKNATVHTVIQGVLTNTDVLIENGKISALGPQLSTNTTASTQVVDASGKHLYPGLIALDTSLGLVEIEMVRPTVDNAEVGDVNPQISAASAYNPDSELLPTIRYNGITHAQIVPSGDGLAGQSVVVDLDAWTIEDALQPNEGQFHVYWPQIKRMPEDEKEKAKAIEKNQQAIDKLITAFEDGYRYFLSQNAQDTDNWPNLRWQAMLPLYQGKATLFAHADSVSQIEQVIALTKKYQFKLVIVGGYDAWRLASSLREVNASVIYPHTLSLPKRKDEPVDLPFKIPSLLANAGIPYALGFSSDWNSRNLPYAAGYSAAYGVTPEQALKSVTLDAAKLLGIADLGAIAVGYQGSVVLSDGDILDPMSSKIDAIWIEGRQIDLNNRHQQLYQKYLKR”: the protein production entry was “failed”. Consider “MKHLTVYFLLALQGVLFSFSLSAATPQNAIAYHDGNVRFSVLTDGVIRMEWSPSGSFTDDPSFVAIHRNLPVPKYTVQNKNATVVISTARMKLKYKKGQGPFTKDNLTITSAKGMFPFQWTPGTIQKGNLKGTDRTLDGFEGDHNIYSHQDMKLEDGLLSTDGWTLIDDSKNFLFDNSEWAWVKEREHKDGQDWYFMAYGHDYKAALKDFTVFAGKVPLPPRYAFGYWWSRYWSYSDKEMRQLVDNFHTYNIPLDVLVVDMDWHYTDPGFGGWTGWTWNRRLFPDPAKFLGYLKSNDLKITLNLHPADGVAPYEEKYPEMAQWMGVDTAKQERIPWVVSDKRFINGMFNKVLRPMEKQGVDFWWLDWQQWMYDKKVDSLSNTWWINYVFFSDMERNRDTRPMLYHRWGGLGNHRYQIGFSGDAVISWKSLEFQPYFTNCASNVLYGYWSHDIGGHMFKGGDKEILDPELFTRWMQYGALTPVMRTHSTKNSVLNKELWNFKGDYFEALRNSILFRYQLAPYIYTMARETYDNGISICRPMYYDYPEAKEAYDFKSEYMFGDQILVAPITTPMQNGLSTVKVWLPEGNDWFEWTTGTLLKGGQIIERSFTLTEYPVYVKAGSVLPLYNRVKNLNSNSEEIIVNIFPGENGSFTFYEDNGNDKYYANEYARTRMYTERKENHLTVTVGPRQGKYRNMPTDRQFKIKVLGSAIPETITINGNRAEYEYIGDELALLITIPQTACDQEKTIEIQYSTSIPELNDGIVSQFKRFSKAITALKYRDAGIVLTPTMGATEATSIALTYSPERFNELIETFKRNYSQMPEMLKEQKLNEANSQWFMKAIGWKK”, for which the protein production result is recorded as “failed”. “MKHTIGILGGMGPAATADMLEKFVELRHASCDQQHIPLIVSSIPDIPDRTACLLSGGPSPYRYLERYLHMLEDAGAECIVIPCNTAHYWFDDLQNVAKARMISILDATLGDIPPSARHVGLLATNATLATGLYQKKALARGLTLIQPEDAGQALVMQAIYTLKRGDKTAAQALLLPQIDSLIARGAQAIIMGCTEIPLIVAGHERAIACPMIDSTASLVRAAIRWYESWPDTRASLTGEQRLTA”: the protein production entry is “not failed”. In the case of “MKHVDTEIPTEEQIHEAEKFGFHGQVQAAKIRFDRYFPGVLASITVAAAATFLSDHYGAPTMLFALLIGMAFRFLSEDESRALVGIQFASTTVLRIGVALLGMRITLGQIQSLGVKPVVMVFFSVLLTILFGLALSKMMGRGKRFGVLTGGSVGICGASAALAIAAVLPQDEYSERNTIFTVISITALSTLAMIAYPVVAQWFGLDHQAAGIFLGGTIHDVAQVVGAGYSVSEQTGDTATVIKLLRVSMLVPVVFILSLIFHKRNQKDGNAPRRTLLPPFIIFFVLFVGINSLGVVPKPATQFINDVSRWCLVTAIGALGMKTSLKSLFEVGWKPVSIMIAETVFLAVLVLGSVVWMS”, the protein production entry is recorded as “failed”.

With “MKIAALYDIHGNYPALKEVLKQVKKLSPDLVVLGGDLIAGPMPLETLSLLKHVSTTFKTVGIMGNNDQDIVDIYAKKRVGLSRKATEQLTWIANQLSYKQVSFLRNLLPSISIGNYFFCHAVKNDNTTVFSPQQNKAYIETLFKGVQESYIICGHTHIQFELSLPNKKIINAGSIGMPFSNQFGAQWLWLDDNRIEYKRTIFNQQAAIQLISQTEYPFKNEFIANNLRSTISLSQGYSILNTLIRAQNAQHDLSLEHHHHHH”, the protein production entry was “not failed”. The entry for “MKIADGVYVHFIPTQKYKTNRIVFRMTGSLNKQTIAKRALVSQMLATANQTYPTVQSFKERLASLYGTQLSTKVSTKGLTHSVDIELTYLKDFFIPMNTSLFWEVLGFLMDCLYNPLSIVAQYQNKVFDIEKQNLMTYLDVDTENNYYYSEVQGRELYFVNEALKVPKYGRVELVEAETSFTAYQEFQSMLTKDRIDIFMVGEFDDYQVLRGLHRFPLEGRQVDLQFSYNQSYSKVVKEKIETRQTSQSILQLGYQFPCQYGDKDYFALIVFNGMLGEFAHSALFTKIREKEGLAYSIGSQFDAFTGLLEIYAGIEKSNRNQAMRGIIRELNHIKLGRFSSSLFNQTKKIIRMNALLSEDHALTLVEQHFNKVIFGDKKISLEDWLDKIEKVTKKDVCRIARQVKLQSLFFLEGVS” is “failed”; for “MKIAVMGYGTIGSGVVEVLEINKEKIAKRAGEPIEVKYVLDLREFPGTPIENKIVHDYKVIAEDPEIGIVVETMGGVEPAFTFVKAMLEAGKQVATSNKNLVAAKGAELIKVARDHGVNFQFEASVGGGIPIIRPLNKCLTADEIEEITGILNGTTNYMLTKMTEEGADFDEVLKDAQDKGYAEKDPTADIEGYDPCRKIAILTSLVAGQQVDFEDIHCEGITKITPEDIKYAKAMHRAIKLLASSRKVGDSYTCLVAPYMIDDTHPLSGVNGVFNGVFLRGNVLGDAMFYGSGAGKLPTASAVVADVVDMTKHQNTNIYIDWKPEKLTLVSYDDSVNSFFVRTDSPKSEVEAVFGHVDYIEDVVDGEYAFTTGDMTEKDFADKASKINVINRIRL” it is “failed”; for “MKICHRYIAWQVLTGMVIATAILLPLFSFFDLLDQLDDVGKGTYTTWDAFLYTVMLMPRRFIQIAPFIALLGTVGALGALAVNLELVAMRVAGLSPLMIGLAPVGIGGLLIASTIALEYFVAPQFQQQATILRAVALEQGAELGKGLGIWTRNERNILRIGEMLHKGRATDIEVIHFDGEGSMTAHVHAWYADIFDESLWKLHDVTIRTFSPDRITSRKAHILQWHSFLGPDDIATLTKSPESLTPIELVKHAEFLRATGQKADAYVMALWRKVGGAIMTIAMILVAIPFIFGSVREGLGGKLILAALMGISIYLFDQIIANIGLVFQLNPIVVSVVPGMVLIAVAAHWLLRRTF” it is “failed”.

On to “MKIDGETRSARKDREIIQAATAAFISKGYDGTSMEEIATKAGASKQTVYKHFTDKETLFGEVVLSTASQVNDIIESVTTLLSEAIFMEGGLQQLARRLIAVLMDEELLKLRRLIIANADRMPQLGRAWYEKGFERMLASTASCFQKLTNRGLIQTGDPYLAASHLFGMLLWIPMNEAMFTGSNRRSKAELERHADASVEAFLAVYGVQPK”, for which the protein production entry is on record as “not failed”. As for “MKIEKQVNDLRIIELEKELENNPFIPILYWELGLNYLISVGEEKAEEIWSLGLLQCFTSFDEGLLSLVGFIEQHIELNKNDKQTVLILWQQIIKIVPNYLAGHLNLLVVACELKVFSAEKLAYLGTVALINSIDSGCISQQEEELLLRATLSILEFPTALSLDFLRSSIPLLVNLPWCDAVMAFANSMVYDKQLFSYGVEIAEICLQYSPNNLFILNDLIRFYGLRKDQDALLRTARNLLNIFRQQDFEPDFGFYLSSRLLSAFMTGNDWEQVQSIASIFKDYFILLQNEKSVVLNNFLRDRFWGLGFSLLYLFDEPESNRRCLNFNASIFQQNLTENQNKTICQEENLPKKKQVSLKRIGYIAHTLRQHSVGWLCRWLFKYHDREKFEIFVYLIGQPEDELTENWIYPNVSKYYHFGRDKNEIIKQIKQDQIQILVDLDVLTHNITAQVLAHKPAPVQVSWLGSDASGLPAIDYFIVDPYVVPDDAEGYYREKLWRLPQTYLAVDGFEMGTPTLSREQLGIKPNTVIYLSVQNKIKSNPNILKLQLQILQSVPDSVFLIKGGGDNELIRAMVEQLAKEMGLDLHRIRFLPKDGDEMTHRANLSIADVVLDTYPYNGATTTLETLWMEVPLVTRVGKQFASRNSYTFLTQLNIREGLAWNDQEYVYWGTRFGLEKSLREKVKNELNLGKYKSKLWRAKDFTQELELAYEGMWNGDLD”, the protein production entry is on record as “failed”. For the sequence “MKIFGTDGVRGKAGVKLTPMFVMRLGIAAGLYFKKHSQTNKILIGKDTRKSGYMVENALVSALTSIGYNVIQIGPMPTPAIAFLTEDMRCDAGIMISASHNPFEDNGIKFFNSYGYKLKEEEEKAIEEIFHDEELLHSSYKVGESVGSAKRIDDVIGRYIAHLKHSFPKHLNLQSLRIVLDTANGAAYKVAPVVFSELGADVLVINDEPNGCNINDQCGALHPNQLSQEVKKYRADLGFAFDGDADRLVVVDNLGNIVHGDKLLGVLGVYQKSKNALSSQAVVATNMSNLALKEYLKSQDLELKHCAIGDKFVSECMQLNKANFGGEQSGHIIFSDYAKTGDGLVCALQVSALVLESKQVSSVALNPFELYPQSLVNLNVQKKPPLESLKGYSALLKELDKLEIRHLIRYSGTENKLRILLEAKDEKLLESKMQELKEFFEGHLC”, the protein production entry is given as “failed”. With “MKIFRNPPLVMSGLTLGLFALGNLLKLYHPSLRHLLSIIALLLYLFLILSILKNLSQALEQIKHPLIASIFPTFFMSGMLLAGYIQTFPFLEDWVTLISLTIWWLAFLGNAGLIAYFTIKFVIPFHWEHVFPSWSVLYVGIAVATLTAPISGQYILGQIIFWTCLLLTLLILPLMTIKAYCIGLPETAKPNICTFCAPLSLLLAGYLKTFPPEQSPNTNFVWLLLLASQLLYFFVVLQLPVLLKREFNPGFSAFTFPFAISATALRSAGSYLHLQLPLFQLLVKLEELLASILVLFILYSYLRFLSKQEDLPSN” the entry was “failed”; with “MKIFRSIDEIREPLPSPVVTIGNFDGVHLGHREIFRRVKREAARLDGVSMVITFTPHPLKVLGLRKELRLINTYAEKELLIEASGIDCLLTIPFTAEFAAIGAERFVGEILVGRIGVKKLVIGYDYAFGRNREGDVAMLRRMGEEHGFEVEVLEQIASGETVYSSSAVRRMIAAGNVREVVSLIGRHYSVGGTVVHGRRRGKDLGFPTANLRTEKELIPAAGVYAVKVRVDDTIRDGACNIGNNPTFGNEEVTVEVHILDFDGDLYGKEIRVYFVDRVREELRYPDLNALKEGISRDVARCRELLAGVSIIEYRDYLGGDAA”, “failed”. The entry for “MKIGIIGAGNIGGTLARKFVAAGHSVKLAGSKSPDSIRELAENIGAEPVAAVEAVKDVEVIVLSIPFAKIPEVAGLFSTVPAEVVVIDTSNYYPQLGTRIPEVDDGELESVWAREQLGRPIIKAFNAIIAKTLADGGKPAGTDNRIAIPVAGDSLAGKAIAQQLLDDAGFDALDAGTIADSWRQQPGMPAYCTELPLAALHSALNVAVKGDAPHLRDALMAEFFGGDIPPSHETIVARNRAVSA” is “failed”.
